The data set can be described thus: self-splicing fitness, log relative to wild type (ln ratio); higher = more splicing; Tetrahymena group I intron in knt gene, E. coli kanamycin selection, DiMSum; sequences stand for … in CUCUCU…GGAGGGAAAAGUUAUCAGGCAUGCACCUGGUAGCUAGUCUUUAAACCAAUAGAUUGCAUCGGUUUAAAAGGCAAGACCGUCAAAUUGCGGGAAAGGGGUCAACAGCCGUUCAGUACCAAGUCUCAGGGGAAACUUUGAGAUGGCCUUGCAAAGGGUAUGGUAAUAAGCUGACGGACAUGGUCCUAACCACGCAGCCAAGUCCUAAGUCAACAGAUCUUCUGUUGAUAUGGAUGCAGUUCACAGACUAAAUGUCGGUCGGGGAAGAUGUAUUCUUCUCAUAAGAUAUAGUCGGACCUCUCCUUAAUGGGAGCUAGCGGAUGAAGUGAUGCAACACUGGAGCCGCUGGGAACUAAUUUGUAUGCGAAAGUAUAUUGAUUAGUUUUGGAGUACUCGUGGUCG
In outline:
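Six replicate transformations of E. coli BL21(DE3) with a pET-22b(+) library were grown overnight at 37°C or 30°C. The library randomised all eight P1ex-region intron nucleotides, the intron lying in the knt kanamycin-resistance gene, and plates were LB agar with or without 25 μg/mL kanamycin plus 100 μg/mL carbenicillin, 50 μM IPTG and 0.2% rhamnose. Pooled colonies were amplicon-sequenced on an Illumina HiSeq 2500, and fitness is the DiMSum error-weighted combination of wild-type-normalised replicate fold changes, kanamycin versus none.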

± gives the uncertainty stated by the source.

With GUGUAGCAAUAUUACGCGUC, the “self-splicing fitness (ln)” value by setting is: (30 °C) -3.17 ± 0.21; (37 °C) -0.598 ± 0.14.

Regarding CCCGAGCAAUAUUACGCUAU, the “self-splicing fitness (ln)” value reads like this: (30 °C) -4.39 ± 0.34; (37 °C) -2.49 ± 0.2. As for AAUAAGCAAUAUUACGUGGC, the “self-splicing fitness (ln)” value reads like this: (30 °C) -2.72 ± 0.22; (37 °C) -2.82 ± 0.36. Take CCGUAGCAAUAUUACGUGAA: the “self-splicing fitness (ln)” value by setting is: (30 °C) -3.73 ± 0.18; (37 °C) -2.34 ± 0.18. Regarding GGGAAGCAAUAUUACGCGAC, the “self-splicing fitness (ln)” value was -2.77 ± 0.37 (30 °C) and -1.5 ± 0.32 (37 °C). As for CCAAAGCAAUAUUACGCCGC, the “self-splicing fitness (ln)” value (37 °C) was -2.58 ± 0.38.

For UUUUAGCAAUAUUACGUUAG, the “self-splicing fitness (ln)” value (30 °C) was -1.37 ± 0.13 and the “self-splicing fitness (ln)” value (37 °C) was -2.02 ± 0.21. Take GAACAGCAAUAUUACGUAUG: the “self-splicing fitness (ln)” value reads like this: (30 °C) -1.02 ± 0.091; (37 °C) -0.888 ± 0.12. On the same counts, the results for CUGAAGCAAUAUUACGUCGA are -2.2 ± 0.17 and -1.57 ± 0.23.

In the case of GUCAAGCAAUAUUACGUGUA, the “self-splicing fitness (ln)” value by setting is: (30 °C) -1.8 ± 0.062; (37 °C) -0.887 ± 0.072. As for GUAGAGCAAUAUUACGGCUU, the “self-splicing fitness (ln)” value runs as follows: (30 °C) -0.97 ± 0.075; (37 °C) -0.03 ± 0.12. On the same counts, the results for UCUUAGCAAUAUUACGGACA are -2.63 ± 0.2 and -1.19 ± 0.14.

For the sequence UGACAGCAAUAUUACGAAAC, the “self-splicing fitness (ln)” value (30 °C) was -3.96 ± 0.24 and the “self-splicing fitness (ln)” value (37 °C) is -1.96 ± 0.26.

Consider AGCUAGCAAUAUUACGUUGC, for which the “self-splicing fitness (ln)” value runs as follows: (30 °C) -3.91 ± 0.25; (37 °C) -3.13 ± 0.28. As to UACCAGCAAUAUUACGCACA, the “self-splicing fitness (ln)” value runs as follows: (30 °C) -0.477 ± 0.088; (37 °C) 0.0379 ± 0.092. With UACAAGCAAUAUUACGUCGU, the “self-splicing fitness (ln)” value reads like this: (30 °C) -3.83 ± 0.18; (37 °C) -2.04 ± 0.17. In the case of AGAUAGCAAUAUUACGUUGG, the “self-splicing fitness (ln)” value (30 °C) was -4.65 ± 0.46 and the “self-splicing fitness (ln)” value (37 °C) was -2.57 ± 0.2.

CUAUAGCAAUAUUACGACUA: under “30 °C”, the “self-splicing fitness (ln)” value was -1.87 ± 0.47. Take CUCUAGCAAUAUUACGGGAA: the “self-splicing fitness (ln)” value is, setting by setting: (30 °C) -2.54 ± 0.14; (37 °C) -1.11 ± 0.11. As to UUCCAGCAAUAUUACGAUUC, the “self-splicing fitness (ln)” value runs as follows: (30 °C) -1.5 ± 0.17; (37 °C) -2.04 ± 0.27. Regarding AAGUAGCAAUAUUACGAUUU, the “self-splicing fitness (ln)” value amounted to 0.429 ± 0.06 (30 °C) and 0.104 ± 0.075 (37 °C). Consider UCCCAGCAAUAUUACGCCAG, for which the “self-splicing fitness (ln)” value reads like this: (30 °C) -2.08 ± 0.23; (37 °C) -2.27 ± 0.49. Turning to CCACAGCAAUAUUACGCAGG, the “self-splicing fitness (ln)” value runs as follows: (30 °C) -3.97 ± 0.27; (37 °C) -2.35 ± 0.23. Consider GAAAAGCAAUAUUACGGCAU, for which the “self-splicing fitness (ln)” value is, setting by setting: (30 °C) -0.258 ± 0.066; (37 °C) 0.329 ± 0.083. With CCUCAGCAAUAUUACGAUCG, the “self-splicing fitness (ln)” value reads like this: (30 °C) -0.809 ± 0.1; (37 °C) -0.00907 ± 0.14. For CCCAAGCAAUAUUACGCAUA the same measures were -3.47 ± 0.19 and -2.49 ± 0.17. Turning to UCGGAGCAAUAUUACGGAUA, the “self-splicing fitness (ln)” value is -2.51 ± 0.35 (30 °C) and -1.96 ± 0.29 (37 °C). On to AGCCAGCAAUAUUACGGUCC, for which the “self-splicing fitness (ln)” value by setting is: (30 °C) -1.12 ± 0.081; (37 °C) -0.461 ± 0.12. For CUCAAGCAAUAUUACGCGUG, the “self-splicing fitness (ln)” value runs as follows: (30 °C) -3.3 ± 0.21; (37 °C) -3.41 ± 0.43. In the case of AAACAGCAAUAUUACGAGUU, the “self-splicing fitness (ln)” value by setting is: (30 °C) -1.94 ± 0.068; (37 °C) -0.482 ± 0.075. For UAAAAGCAAUAUUACGCCAC, where the note is “37 °C”, the “self-splicing fitness (ln)” value is -2.02 ± 0.36.

As to GUUCAGCAAUAUUACGUUUU, the “self-splicing fitness (ln)” value was -0.661 ± 0.052 (30 °C) and -0.216 ± 0.062 (37 °C).

With CUAAAGCAAUAUUACGCUAC, the “self-splicing fitness (ln)” value (30 °C) was -3.59 ± 0.37 and the “self-splicing fitness (ln)” value (37 °C) is -2.59 ± 0.26. Regarding AGGAAGCAAUAUUACGGGGC, the “self-splicing fitness (ln)” value is -3.49 ± 0.26 (30 °C) and -2.49 ± 0.24 (37 °C). For the sequence GGAUAGCAAUAUUACGCGAC, the “self-splicing fitness (ln)” value reads like this: (30 °C) -3.69 ± 0.36; (37 °C) -1.92 ± 0.38. On to CAACAGCAAUAUUACGGAAC, for which the “self-splicing fitness (ln)” value by setting is: (30 °C) -4.2 ± 0.28; (37 °C) -3.48 ± 0.23.

In the case of UGUUAGCAAUAUUACGGCCU, the “self-splicing fitness (ln)” value is, setting by setting: (30 °C) -0.213 ± 0.27; (37 °C) 0.286 ± 0.25. GUUGAGCAAUAUUACGAGAU: the “self-splicing fitness (ln)” value (30 °C) is -2.7 ± 0.19 and the “self-splicing fitness (ln)” value (37 °C) is -2.81 ± 0.31.

Values taken from the supplement of paper PMC7877785.
